The record followed here is article PMC8233664, “CAR T cells targeting tumor-associated exons of glypican 2 regress neuroblastoma in mice” (Cell Reports Medicine, 2021).

The term Kd denotes the equilibrium constant for the complex coming apart.

The target in test [1] is T1, recombinant human GPC3 protein (Homo sapiens, UniProt P51654).
T1 construct: human glypican 3, recombinant protein from R&D Systems; source: bought: R&D Systems
Briefly: ELISA; plates coated with recombinant human GPC2, GPC1 and GPC3; mouse hybridoma supernatant containing 1 μg/ml of each mAb; detected with goat anti-mouse IgG-HRP. The conditions noted are these: one partner purified. (In general: In an ELISA, binding on a coated surface is turned into a signal by an enzyme label.)

For test [2], the target named is T2, recombinant human GPC1 protein (Homo sapiens, UniProt P35052).
T2 construct: human glypican 1, recombinant protein from R&D Systems; source: bought: R&D Systems
Described as above. The settings on record: one partner purified.

Another test addresses T3, GPC2 exon 3 peptide 21 (Homo sapiens).
T3 construct: human glypican 2, 18-residue peptide no; 21 of the overlapping library (9 residues overlap), in exon 3; source: synthetic peptide (Genscript)
T3 chain: QPFGDSPRRLRLQITRTL
Briefly: ELISA; single 18-residue peptides at 5 μg/ml in PBS coated overnight; 1 μg/ml CT3; detected with goat anti-mouse IgG-HRP. The settings on record: both partners purified.

A further test deals with T4, GPC2 exon 3 peptide 13 (Homo sapiens).
T4 construct: human glypican 2, 18-residue peptide no; 13 of the overlapping library (9 residues overlap), in exon 3; source: synthetic peptide (Genscript)
T4 chain: RLYAQHALIFNGLFSRLR
The test is described as above. The conditions noted are these: both partners purified.

The target of the next test is T5, GPC2 exon 3 peptide 10 (Homo sapiens).
T5 construct: human glypican 2, 18-residue peptide no; 10 of the overlapping library (9 residues overlap), in exon 3; source: synthetic peptide (Genscript)
T5 chain: RKFDEFFLEMLSVAQHSL
The description is as above. The conditions noted are these: both partners purified.

The target in another test is T6, GPC2 exon 3 peptide 14 (Homo sapiens).
T6 construct: human glypican 2, 18-residue peptide no; 14 of the overlapping library (9 residues overlap), in exon 3; source: synthetic peptide (Genscript)
T6 chain: FNGLFSRLRDFYGESGEG
The description is as above. The conditions noted are these: both partners purified.

The next test concerns the target T7, GPC2 exon 3 peptide 19 (Homo sapiens).
T7 construct: human glypican 2, 18-residue peptide no; 19 of the overlapping library (9 residues overlap), in exon 3; source: synthetic peptide (Genscript)
T7 chain: PDYLLCLSRLASSTDGSL
The description is as above. The settings on record: both partners purified.

Another test addresses T8, GPC2 exon 3 peptide 15 (Homo sapiens).
T8 construct: human glypican 2, 18-residue peptide no; 15 of the overlapping library (9 residues overlap), in exon 3; source: synthetic peptide (Genscript)
T8 chain: DFYGESGEGLDDTLADFW
The description is as above. The settings on record: both partners purified.

In another test the target is T9, GPC2 exon 3 peptide 11 (Homo sapiens).
T9 construct: human glypican 2, 18-residue peptide no; 11 of the overlapping library (9 residues overlap), in exon 3; source: synthetic peptide (Genscript)
T9 chain: MLSVAQHSLTQLFSHSYG
The test is described as above. The conditions noted are these: both partners purified.

Another test deals with T10, GPC2 exon 3 peptide 12 (Homo sapiens).
T10 construct: human glypican 2, 18-residue peptide no; 12 of the overlapping library (9 residues overlap), in exon 3; source: synthetic peptide (Genscript)
T10 chain: TQLFSHSYGRLYAQHALI
The description is as above. The settings on record: both partners purified.

Another test deals with T11, GPC2 exon 3 peptide 20 (Homo sapiens).
T11 construct: human glypican 2, 18-residue peptide no; 20 of the overlapping library (9 residues overlap), in exon 3; source: synthetic peptide (Genscript)
T11 chain: LASSTDGSLQPFGDSPRR
The test is described as above. The conditions noted are these: both partners purified.

For another test, the target named is T12, GPC2 exon 3 peptide 16 (Homo sapiens).
T12 construct: human glypican 2, 18-residue peptide no; 16 of the overlapping library (9 residues overlap), in exon 3; source: synthetic peptide (Genscript)
T12 chain: LDDTLADFWAQLLERVFP
The description is as above. The settings on record: both partners purified.

Another test deals with T13, GPC2 exon 3 peptide 17 (Homo sapiens).
T13 construct: human glypican 2, 18-residue peptide no; 17 of the overlapping library (9 residues overlap), in exon 3; source: synthetic peptide (Genscript)
T13 chain: AQLLERVFPLLHPQYSFP
The test is described as above. The settings on record: both partners purified.

The next test has as its target T14, GPC2 exon 3 peptide 18 (Homo sapiens).
T14 construct: human glypican 2, 18-residue peptide no; 18 of the overlapping library (9 residues overlap), in exon 3; source: synthetic peptide (Genscript)
T14 chain: LLHPQYSFPPDYLLCLSR
The description is as above. The conditions noted are these: both partners purified.

Test [3] has as its target human GPC2 stably overexpressed on G10 (A431) and F8 (IMR5) cells (Homo sapiens, UniProt Q8N158). Nature of the test: cell-based or functional assay.
The target in test [4] is cell surface GPC2 on neuroblastoma cells (Homo sapiens, UniProt Q8N158). Nature of the test: cell-based or functional assay.
In test [5] the target is T15, recombinant human GPC6 protein (Homo sapiens, UniProt Q9Y625).
T15 construct: human glypican 6, recombinant protein from R&D Systems; source: bought: R&D Systems
Nature of the test: ELISA; CT3 at 1 μg/ml on human GPC1 through GPC6 and mouse GPC2 proteins (R&D Systems) and GPC2 exon 3-hFc; detected with goat anti-mouse IgG-HRP. The settings on record: both partners purified.

The target of test [6] is T16, recombinant human GPC4 protein (Homo sapiens, UniProt O75487).
T16 construct: human glypican 4, recombinant protein from R&D Systems; source: bought: R&D Systems
The test is described as above. The conditions noted are these: both partners purified.

Test [7] concerns the target T17, recombinant human GPC5 protein (Homo sapiens, UniProt P78333).
T17 construct: human glypican 5, recombinant protein from R&D Systems; source: bought: R&D Systems
Described as above. The settings on record: both partners purified.

The target in test [8] is T18, human GPC2 exon3-hFc protein (Homo sapiens).
T18 construct: human glypican 2, the stretch encoded by exon 3 (of transcript GPC2-201); also called recombinant exon 3 fragment of GPC2; exon 3 of GPC2; source: cloned into the pVRC8400 expression plasmid
T18 chain: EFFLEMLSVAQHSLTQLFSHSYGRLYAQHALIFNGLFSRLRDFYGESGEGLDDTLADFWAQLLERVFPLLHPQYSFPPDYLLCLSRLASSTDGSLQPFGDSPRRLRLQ
The description is as above. The settings on record: both partners purified.

Test [9] has as its target T19, recombinant human GPC2 protein (Homo sapiens, UniProt Q8N158).
T19 construct: human glypican 2 (GPC2), recombinant protein from R&D Systems; also called human glypican 2; His-tagged GPC2 protein; source: bought: R&D Systems
Briefly: BLI; Octet RED96; His-tagged GPC2 immobilised on Ni-NTA biosensors; association 600 s, dissociation 1800 s. The settings on record: both partners purified. A general note: Biolayer interferometry detects binding as a change in optical thickness at a sensor tip.

Sequence of cell surface GPC2 on neuroblastoma cells (Q8N158 24-554): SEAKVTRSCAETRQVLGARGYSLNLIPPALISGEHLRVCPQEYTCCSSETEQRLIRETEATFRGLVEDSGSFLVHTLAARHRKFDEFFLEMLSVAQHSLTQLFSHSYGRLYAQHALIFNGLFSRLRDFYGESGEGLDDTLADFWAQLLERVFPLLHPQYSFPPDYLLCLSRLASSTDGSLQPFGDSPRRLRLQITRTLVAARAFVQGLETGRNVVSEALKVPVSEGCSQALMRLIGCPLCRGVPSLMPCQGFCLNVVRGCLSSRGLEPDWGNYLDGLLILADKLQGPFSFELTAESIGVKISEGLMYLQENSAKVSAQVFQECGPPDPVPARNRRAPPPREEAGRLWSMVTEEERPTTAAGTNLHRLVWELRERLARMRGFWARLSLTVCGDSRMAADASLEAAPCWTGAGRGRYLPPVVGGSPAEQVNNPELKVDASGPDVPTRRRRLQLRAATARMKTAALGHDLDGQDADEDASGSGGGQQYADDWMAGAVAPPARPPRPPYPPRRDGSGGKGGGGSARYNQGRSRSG
T16 sequence (O75487 19-529): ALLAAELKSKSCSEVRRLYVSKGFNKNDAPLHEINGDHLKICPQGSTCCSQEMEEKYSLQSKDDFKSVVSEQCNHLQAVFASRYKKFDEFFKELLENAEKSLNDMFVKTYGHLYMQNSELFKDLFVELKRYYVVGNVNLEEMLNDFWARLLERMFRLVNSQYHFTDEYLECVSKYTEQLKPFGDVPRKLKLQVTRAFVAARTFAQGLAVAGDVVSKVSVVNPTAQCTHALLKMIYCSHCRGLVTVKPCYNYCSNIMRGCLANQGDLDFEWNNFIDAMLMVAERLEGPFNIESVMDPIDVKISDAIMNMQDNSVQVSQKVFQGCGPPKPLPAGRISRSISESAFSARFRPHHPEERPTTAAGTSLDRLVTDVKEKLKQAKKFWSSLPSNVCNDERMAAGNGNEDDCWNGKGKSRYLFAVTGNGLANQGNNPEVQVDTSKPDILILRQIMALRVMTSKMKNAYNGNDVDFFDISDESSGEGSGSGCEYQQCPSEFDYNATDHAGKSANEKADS
T1 sequence (P51654 25-580): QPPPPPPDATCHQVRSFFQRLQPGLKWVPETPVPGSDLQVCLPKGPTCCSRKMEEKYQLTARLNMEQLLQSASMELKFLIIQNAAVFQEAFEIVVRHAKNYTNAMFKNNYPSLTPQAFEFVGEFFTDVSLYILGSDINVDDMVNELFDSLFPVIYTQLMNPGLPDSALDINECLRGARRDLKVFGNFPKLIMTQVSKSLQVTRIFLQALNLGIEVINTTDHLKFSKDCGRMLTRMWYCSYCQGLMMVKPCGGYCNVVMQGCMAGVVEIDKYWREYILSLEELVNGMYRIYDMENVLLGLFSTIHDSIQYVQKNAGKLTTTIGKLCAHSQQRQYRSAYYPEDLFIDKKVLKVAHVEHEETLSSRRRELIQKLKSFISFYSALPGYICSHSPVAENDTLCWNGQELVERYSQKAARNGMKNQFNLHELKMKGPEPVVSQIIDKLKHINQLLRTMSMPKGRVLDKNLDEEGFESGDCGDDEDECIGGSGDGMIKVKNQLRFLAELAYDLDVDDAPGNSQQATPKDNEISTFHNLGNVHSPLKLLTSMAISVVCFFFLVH
T2 sequence (P35052 24-530): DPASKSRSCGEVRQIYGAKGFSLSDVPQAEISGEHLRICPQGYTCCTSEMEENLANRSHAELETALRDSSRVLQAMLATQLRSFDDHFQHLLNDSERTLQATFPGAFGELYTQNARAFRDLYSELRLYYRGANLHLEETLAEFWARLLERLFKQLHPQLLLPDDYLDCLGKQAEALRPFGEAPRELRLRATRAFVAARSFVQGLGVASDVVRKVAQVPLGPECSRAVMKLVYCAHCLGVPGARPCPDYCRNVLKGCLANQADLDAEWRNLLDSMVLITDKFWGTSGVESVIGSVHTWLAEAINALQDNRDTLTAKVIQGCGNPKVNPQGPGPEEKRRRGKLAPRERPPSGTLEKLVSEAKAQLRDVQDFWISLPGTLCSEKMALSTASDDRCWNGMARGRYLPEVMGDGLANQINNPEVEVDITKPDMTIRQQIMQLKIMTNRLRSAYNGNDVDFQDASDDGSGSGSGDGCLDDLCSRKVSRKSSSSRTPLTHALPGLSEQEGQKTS
T17 sequence (P78333 25-572): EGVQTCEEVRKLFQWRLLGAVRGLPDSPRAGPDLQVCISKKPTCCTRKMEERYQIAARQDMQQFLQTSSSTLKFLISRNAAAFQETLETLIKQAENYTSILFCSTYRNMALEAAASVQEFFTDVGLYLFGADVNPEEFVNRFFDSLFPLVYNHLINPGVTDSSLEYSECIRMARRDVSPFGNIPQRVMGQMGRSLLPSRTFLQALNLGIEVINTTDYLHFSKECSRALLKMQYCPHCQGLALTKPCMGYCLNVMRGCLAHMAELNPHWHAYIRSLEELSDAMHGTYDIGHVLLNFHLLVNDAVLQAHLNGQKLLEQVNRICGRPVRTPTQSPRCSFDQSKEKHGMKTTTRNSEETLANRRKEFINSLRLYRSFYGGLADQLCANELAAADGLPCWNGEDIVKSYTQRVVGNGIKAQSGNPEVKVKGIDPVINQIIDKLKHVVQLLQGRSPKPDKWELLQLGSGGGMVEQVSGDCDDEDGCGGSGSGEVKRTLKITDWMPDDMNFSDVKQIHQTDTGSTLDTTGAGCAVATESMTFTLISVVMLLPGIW
T19 sequence (Q8N158 24-554): as the sequence (Q8N158 24-554) above
Sequence of human GPC2 stably overexpressed on G10 (A431) and F8 (IMR5) cells (Q8N158 24-554): as above
T15 sequence (Q9Y625 24-529): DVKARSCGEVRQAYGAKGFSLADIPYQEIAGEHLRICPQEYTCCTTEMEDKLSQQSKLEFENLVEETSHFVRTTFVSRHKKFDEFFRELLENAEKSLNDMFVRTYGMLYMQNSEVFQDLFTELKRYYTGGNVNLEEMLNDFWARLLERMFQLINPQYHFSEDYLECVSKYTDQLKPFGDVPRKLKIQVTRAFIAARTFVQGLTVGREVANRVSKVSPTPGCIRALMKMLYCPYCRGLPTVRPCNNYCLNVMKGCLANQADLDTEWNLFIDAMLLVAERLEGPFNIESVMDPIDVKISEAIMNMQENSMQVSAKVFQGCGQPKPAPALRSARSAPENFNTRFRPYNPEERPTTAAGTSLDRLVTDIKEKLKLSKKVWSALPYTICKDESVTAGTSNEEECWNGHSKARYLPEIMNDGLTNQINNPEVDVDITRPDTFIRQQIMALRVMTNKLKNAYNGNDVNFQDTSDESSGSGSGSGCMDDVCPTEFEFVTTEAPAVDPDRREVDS

B1: CT3 monoclonal antibody (antibody, V domains shown)
VH: EVQLQQSGPELVKPGASVKMSCKASRFTFTDYNIHWVKQSPGKTLEWIGYINPNNGDIFYKQKFNGKATLTINKSSNTAYMELRSLTSEDSAVYYCVRSSNIRYTFDRFFDVWGTGTTVTVSS
VL: ENVLTQSPAIMSASLGEKVTMSCRASSSVNYIYWYQQKSDASPKLWIYYTSNLAPGVPARFSGSGSGNSYSLTISSMEGEDAATYYCQQFSSSPSTFGTGTKLELK
notes: variable regions were cloned by 5'RACE; EM maps of the CT3 Fab/GPC2 complex deposited at wwPDB (deposition ID D_1000256119); Mouse mAb raised against the 50-residue C-terminal (exon 10) peptide of GPC2; also called CT3 mAb; source: mouse hybridoma (parental clone 2); hybridoma supernatant and purified mAb
In the case of B1, the binding result in test [1] was “no binding (tested: 1 μg/ml of each mAb)”; in [2] it was “no binding (tested: 1 μg/ml of each mAb)”; with GPC2 exon 3 peptide 21 it was “no binding (tested: 1 μg/ml of CT3)”; in the test with GPC2 exon 3 peptide 13, “no binding (tested: 1 μg/ml of CT3)”; in the test with GPC2 exon 3 peptide 10 it was “no binding (tested: 1 μg/ml of CT3)”; with GPC2 exon 3 peptide 14 it was “no binding (tested: 1 μg/ml of CT3)”. In addition, the binding result with GPC2 exon 3 peptide 19, with GPC2 exon 3 peptide 15, with GPC2 exon 3 peptide 11, in the test with GPC2 exon 3 peptide 12, in the test with GPC2 exon 3 peptide 20 and with GPC2 exon 3 peptide 16 was “no binding (tested: 1 μg/ml of CT3)” throughout. For the same molecule, the binding result with GPC2 exon 3 peptide 17 is given as “no binding (tested: 1 μg/ml of CT3)”; with GPC2 exon 3 peptide 18, “no binding (tested: 1 μg/ml of CT3)”; in [5], “no binding (tested: 1 μg/mL of CT3)”; in test [6], “no binding (tested: 1 μg/mL of CT3)”; in test [7], “no binding (tested: 1 μg/mL of CT3)”; in test [8] it was “binds”. For the same molecule, the “lysis of G10 and F8 cells (high GPC2) by CT3 CAR T cells (CT3 as scFv in a 4-1BB CAR), luciferase-based killing assay, 24 h, E:T ratio 3:1” value in [3] is approximately 70%. The “cytotoxicity of CT3 CAR T cells (CT3 as scFv in a CAR with CD8α hinge) on NBEB cells, xCELLigence real-time analysis, E:T ratio 1:1, 25 h” value in test [4] worked out at 74%. Also, in test [4], the “cytotoxicity of CT3 CAR T cells (CT3 as scFv in a CAR with CD8α hinge) on SKNAS cells, xCELLigence real-time analysis, E:T ratio 1:1, 25 h” value amounted to 43%. In test [4], the “lysis of NB PDX-derived cells by CT3 CAR T cells (CT3 as scFv in a 4-1BB CAR), luciferase-based killing assay, E:T ratio 25:1, 24 to 72 h of co-culture” value worked out at 80%. Also, the Kd in test [9] stood at 0.5 nM.
